Assay results published in IntAct's records for PubMed 29039417.

B1: BBSome complex member BBS5 (Homo sapiens), Q8N3I7 (parent)
chain: MSVLDALWEDRDVRFDLSAQQMKTRPGEVLIDCLDSIEDTKGNNGDRGRLLVTNLRILWHSLALSRVNVSVGYNCILNITTRTANSKLRGQTEALYILTKCNSTRFEFIFTNLVPGSPRLFTSVMAVHRAYETSKMYRDFKLRSALIQNKQLRLLPQEHVYDKINGVWNLSSDQGNLGTFFITNVRIVWHANMNDSFNVSIPYLQIRSIKIRDSKFGLALVIESSQQSGGYVLGFKIDPVEKLQESVKEINSLHKVYSASPIFGVDYEMEEKPQPLEALTVEQIQDDVEIDSDGHTDAFVAYFADGNKQQDREPVFSEELGLAIEKLKDGFTLQGLWEVMS
partner: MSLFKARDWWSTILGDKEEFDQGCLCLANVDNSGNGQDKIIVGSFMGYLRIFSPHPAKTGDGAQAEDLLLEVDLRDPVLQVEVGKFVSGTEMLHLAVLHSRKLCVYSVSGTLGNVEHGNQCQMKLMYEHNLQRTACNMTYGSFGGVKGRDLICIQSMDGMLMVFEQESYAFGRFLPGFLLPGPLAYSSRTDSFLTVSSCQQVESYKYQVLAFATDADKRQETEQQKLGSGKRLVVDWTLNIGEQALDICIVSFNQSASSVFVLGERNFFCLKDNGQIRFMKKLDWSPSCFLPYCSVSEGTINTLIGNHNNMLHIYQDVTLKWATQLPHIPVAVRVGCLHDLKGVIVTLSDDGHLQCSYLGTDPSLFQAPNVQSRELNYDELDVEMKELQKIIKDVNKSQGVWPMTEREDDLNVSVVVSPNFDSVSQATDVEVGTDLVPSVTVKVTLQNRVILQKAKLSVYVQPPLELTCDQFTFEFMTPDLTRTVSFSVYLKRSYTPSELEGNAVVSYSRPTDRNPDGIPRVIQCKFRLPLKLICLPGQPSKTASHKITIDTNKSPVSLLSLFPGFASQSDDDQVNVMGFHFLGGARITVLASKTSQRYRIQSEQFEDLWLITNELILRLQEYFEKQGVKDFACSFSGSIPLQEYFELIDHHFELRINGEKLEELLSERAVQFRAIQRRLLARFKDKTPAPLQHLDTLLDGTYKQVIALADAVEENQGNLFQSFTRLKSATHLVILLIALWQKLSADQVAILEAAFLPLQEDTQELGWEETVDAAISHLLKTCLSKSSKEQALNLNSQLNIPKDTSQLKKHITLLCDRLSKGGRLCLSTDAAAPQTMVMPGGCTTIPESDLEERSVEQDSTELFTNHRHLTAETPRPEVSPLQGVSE
B2: Isoform 2 of Bardet-Biedl syndrome 7 protein (Homo sapiens), Q8IWZ6-2 (parent)
chain: MDLILNRMDYLQVGVTSQKTMKLIPASRHRATQKVVIGDHDGVVMCFGMKKGEAAAVFKTLPGPKIARLELGGVINTPQEKIFIAAASEIRGFTKRGKQFLSFETNLTESIKAMHISGSDLFLSASYIYNHYCDCKDQHYYLSGDKINDVICLPVERLSRITPVLACQDRVLRVLQGSDVMYAVEVPGPPTVLALHNGNGGDSGEDLLFGTSDGKLALIQITTSKPVRKWEIQNEKKRGGILCIDSFDIVGDGVKDLLVGRDDGMVEVYSFDNANEPVLRFDQMLSESVTSIQGGCVGKDSYDEIVVSTYSGWVTGLTTEPIHKESGPGEELKINQEMQNKISSLRNELEHLQYKVLQERENYQQSSQSSKAKSAVPSFGINDKFTLNKDDASYSLILEVQTAIDNVLIQSDVPIDLLDVDKNSAVVSFSSCDSESNDNFLLATYRCQADTTRLELKIRSIEGQYGTLQAYVTPRIQPKTCQVRQYHIKPLSLHQRTHFIDHDRPMNTLTLTGQFSFAEVHSWVVFCLPEVPEKPPAGECVTFYFQNTFLDTQLESTYRKGEGVFKSDNISTISILKDVLSKEATKRKINLNISYEINEVSVKHTLKLIHPKLEYQLLLAKKVQLIDALKELQIHEGNTNFLIPEYHCILEEADHLQEEYKKQPAHLERLYG
partner: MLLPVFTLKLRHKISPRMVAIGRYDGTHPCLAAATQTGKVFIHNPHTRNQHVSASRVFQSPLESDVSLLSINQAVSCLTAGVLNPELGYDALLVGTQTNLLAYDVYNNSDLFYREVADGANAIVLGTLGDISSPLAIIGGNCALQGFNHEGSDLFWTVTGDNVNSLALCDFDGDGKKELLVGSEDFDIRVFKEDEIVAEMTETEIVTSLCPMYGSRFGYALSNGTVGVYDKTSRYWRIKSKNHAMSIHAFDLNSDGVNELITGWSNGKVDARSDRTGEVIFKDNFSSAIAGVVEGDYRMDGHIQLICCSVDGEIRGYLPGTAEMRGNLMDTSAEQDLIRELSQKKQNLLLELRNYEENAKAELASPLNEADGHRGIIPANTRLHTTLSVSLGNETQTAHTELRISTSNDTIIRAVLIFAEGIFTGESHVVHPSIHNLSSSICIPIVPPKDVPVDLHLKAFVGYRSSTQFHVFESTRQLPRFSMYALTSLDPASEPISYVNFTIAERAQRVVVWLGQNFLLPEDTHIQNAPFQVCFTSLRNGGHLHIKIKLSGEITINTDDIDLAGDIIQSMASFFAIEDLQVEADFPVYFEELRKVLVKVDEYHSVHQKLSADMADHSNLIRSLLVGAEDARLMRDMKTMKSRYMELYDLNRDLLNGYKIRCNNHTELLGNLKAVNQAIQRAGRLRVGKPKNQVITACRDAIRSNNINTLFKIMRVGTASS

Variants of: B1
Conditions: with pthb1_human BBS9, Q3SYG4

Row | effect of a mutation on the interaction | Variant
1 | with no effect | MSVLDALWEDRDVRFDLSAQQMKTRPGEVLIDCLDSIEDTKGNNGDRGRLLVTNLRILWHSLALSRVNVSVGYNCILNITTRTANSKLRGQTEALYILTKCNSTRFEFIFTNLVPGSPRLFTSVMAVHRAYETSKMYRDFKLRSALIQNKQLRLLPQEHVYDKINGVWNLSSDQGNLGTFFITNVRIVWHANMNDSFNVSIPYLQIRSIKIRDSKFGLALVIESSQQSGGYVLGFKIDPVEKLQESVKEINSLHKVYSASPIFGVDYEMEEKPQPLEALTVEQIQDDVEIDSDGHTDAFVAYFADGNKQQDREPVFSEELGLAIEKLKDGFTLQGLWEVMK [S341K]

Variants of: B2
Conditions: with bbs2_human BBS2, Q9BXC9

Row | Variant | effect of a mutation on the interaction
2 | S326E | with no effect
3 | K355E | with no effect
4 | K355A | with no effect
5 | M338K | with no effect
6 | L352K | with no effect
7 | L352E | with no effect
8 | Q353K | with no effect
9 | Q353E | with no effect
10 | S343A | with no effect
11 | S344E | with no effect
12 | R346E | with no effect
13 | R346A | with no effect
14 | P328K | with no effect
15 | P328E | with no effect
16 | G329E | with no effect
17 | G329K | with no effect
18 | E350K | with no effect
19 | E350A | with no effect
20 | L332E | with no effect
21 | Q339K | with no effect
22 | E348A | with no effect
23 | E330A | with no effect

Row | Variant | effect of a mutation on the interaction
24 | E330K | with no effect
25 | I342A | with no effect
26 | I342E | with no effect
27 | I342K | with no effect
28 | N347A | with no effect
29 | N347K | with no effect
30 | H351A | with no effect
31 | H351K | with no effect
32 | Y354E | with no effect
33 | Y354A | with no effect
34 | Y354K | with no effect
35 | K341E | with no effect
36 | K341A | with no effect
37 | G327E | with no effect
38 | G327K | with no effect
39 | Q336A | with no effect
40 | Q336E | with no effect
41 | Q336K | with no effect
42 | L345A | with no effect
43 | L345K | with no effect
44 | L345E | with no effect
45 | I334A | with no effect

Results, then the variant that gave them:

Row | effect of a mutation on the interaction | Variant
46 | with no effect | S326A
47 | with no effect | S326K
48 | with no effect | E331A
49 | with no effect | E331K
50 | with no effect | M338E
51 | with no effect | M338A
52 | with no effect | L352A
53 | with no effect | Q353A
54 | with no effect | S343K
55 | with no effect | S343E
56 | with no effect | S344A
57 | with no effect | S344K
58 | with no effect | R346K
59 | with no effect | L349K
60 | with no effect | L349E
61 | with no effect | L349A
62 | with no effect | P328A
63 | with no effect | G329A
64 | with no effect | K333A
65 | with no effect | K333E

Row | effect of a mutation on the interaction | Variant
66 | with no effect | L332A
67 | with no effect | L332K
68 | with no effect | E337K
69 | with no effect | E337A
70 | with no effect | N335A
71 | with no effect | N335K
72 | with no effect | N335E
73 | with no effect | Q339A
74 | with no effect | Q339E
75 | with no effect | E348K
76 | with no effect | N347E
77 | with no effect | H351E
78 | with no effect | N340A
79 | with no effect | N340E
80 | with no effect | N340K
81 | with no effect | G327A
82 | with no effect | I334K
83 | with no effect | I334E
84 | disrupting interaction strength | V356A
